Data on one molecule can be found in patent publication US6720475, “Nucleic acid sequence encoding FLP recombinase” (Pioneer Hi-Bred International, Inc.).

For data set [1], the target named is T1, FLPy (FLP recombinase from native yeast gene) (Saccharomyces cerevisiae, UniProt P03870 SEQ:1-423).
T1 sequence: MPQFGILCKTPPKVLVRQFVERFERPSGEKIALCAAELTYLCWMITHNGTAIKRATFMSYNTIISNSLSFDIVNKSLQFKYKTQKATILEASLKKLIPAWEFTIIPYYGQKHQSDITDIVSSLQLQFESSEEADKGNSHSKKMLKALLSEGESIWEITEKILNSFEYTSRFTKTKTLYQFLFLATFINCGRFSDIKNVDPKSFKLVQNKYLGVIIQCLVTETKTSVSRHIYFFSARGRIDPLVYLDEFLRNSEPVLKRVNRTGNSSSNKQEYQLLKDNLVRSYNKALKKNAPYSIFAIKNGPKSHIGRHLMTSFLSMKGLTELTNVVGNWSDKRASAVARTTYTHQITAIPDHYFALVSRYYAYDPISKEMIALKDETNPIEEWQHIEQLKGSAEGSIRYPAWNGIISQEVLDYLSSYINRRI
As to the kind of experiment: cell_activity; ED50 for excision between genomic FRT sites in BMS cells, PHP5095 plasmid dose. The following applies: tags: expressed in maize cells; chain copies: 4. An excerpt: (§1) The moFLP gene produces higher levels of site-specific excision in maize cells than FLPy. The FRT-containing BMS transformants produced in Example IIA were transfected with varied doses of FLP-expressing vectors for site specific excision of genomic transgenic sequences using the methods described above for Example II-C. Plasmids expressing FLP, PHP5095 (FLPy), and PHP5096 (moFLP) are described above for Example I-A (see Table I-A-1). The FRT/moFLP-containing PHP5849 is described above for Example I-F (see Table I-F-1). Control plasmids used were PHP3703 (non-FLP negative control; with UBI promoter and intron, wheat germ agglutinin structural gene, and pinII 3' end), PHP3953 (positive control; with UBI promoter and intron, GUS structural gene, and pinII 3' end), and pUC18 (with no plant expression cassette used as carrier DNA to keep the total DNA load constant). Cell culture methods, DNA bombardment methods, and assay methods were those described above for Example I. The experimental design is shown below in Table II-D-1.
(§2) GUS activity indicating FLP-mediated excision of genomic DNA in cells transfected with FLYy or moFLP is shown below in Tables II-D-2 and II-D-3. The $ED50$ for each FLP expression plasmid shown in Table II-D-3 was manually determined from graphing the data.

Data set [2] addresses T2, moFLP (FLP recombinase from maize-codon-optimized gene) (Saccharomyces cerevisiae, UniProt P03870 SEQ:1-423).
T2 chain: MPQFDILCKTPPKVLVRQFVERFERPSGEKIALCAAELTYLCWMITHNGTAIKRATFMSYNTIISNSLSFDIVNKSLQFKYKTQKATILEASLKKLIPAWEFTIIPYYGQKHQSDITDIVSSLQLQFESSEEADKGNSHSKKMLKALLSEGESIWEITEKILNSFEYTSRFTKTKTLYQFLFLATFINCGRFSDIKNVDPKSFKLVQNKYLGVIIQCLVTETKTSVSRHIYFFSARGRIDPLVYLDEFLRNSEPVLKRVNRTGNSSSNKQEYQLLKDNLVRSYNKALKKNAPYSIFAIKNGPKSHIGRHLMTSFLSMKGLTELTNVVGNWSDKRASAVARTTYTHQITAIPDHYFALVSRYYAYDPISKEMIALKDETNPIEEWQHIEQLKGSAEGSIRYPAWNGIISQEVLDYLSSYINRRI
As to the kind of experiment: cell_activity; ED50 for excision between genomic FRT sites in BMS cells, PHP5096 plasmid dose. The following applies: chain copies: 4.
Description: as §1, §2

B1: FRT site (FRT-1) (dsDNA)
DNA 1: GAAGTTCCTATTCTCTAGAAAGTATAGGAACTTC
DNA 2: GAAGTTCCTATACTTTCTAGAGAATAGGAACTTC
Consider B1, for which the EC50 was 0.13 ug FLP expression vector in data set [1] and 0.03 ug FLP expression vector in data set [2].
